How the values were obtained:
[1] = biological target: AdV5 AVP (human adenovirus C serotype 5) (UniProt P03253)
[2] = biological target: AdV5 Fiber (human adenovirus C serotype 5) (UniProt P11818)
[3] = biological target: AdV5 Hexon (human adenovirus C serotype 5) (UniProt P04133)
[4] = biological target: AdV5 Penton base (human adenovirus C serotype 5) (UniProt P12538)
[5] = biological target: T1, AdV5 pIIIa (human adenovirus C serotype 5) (UniProt P12537)
T1 sequence: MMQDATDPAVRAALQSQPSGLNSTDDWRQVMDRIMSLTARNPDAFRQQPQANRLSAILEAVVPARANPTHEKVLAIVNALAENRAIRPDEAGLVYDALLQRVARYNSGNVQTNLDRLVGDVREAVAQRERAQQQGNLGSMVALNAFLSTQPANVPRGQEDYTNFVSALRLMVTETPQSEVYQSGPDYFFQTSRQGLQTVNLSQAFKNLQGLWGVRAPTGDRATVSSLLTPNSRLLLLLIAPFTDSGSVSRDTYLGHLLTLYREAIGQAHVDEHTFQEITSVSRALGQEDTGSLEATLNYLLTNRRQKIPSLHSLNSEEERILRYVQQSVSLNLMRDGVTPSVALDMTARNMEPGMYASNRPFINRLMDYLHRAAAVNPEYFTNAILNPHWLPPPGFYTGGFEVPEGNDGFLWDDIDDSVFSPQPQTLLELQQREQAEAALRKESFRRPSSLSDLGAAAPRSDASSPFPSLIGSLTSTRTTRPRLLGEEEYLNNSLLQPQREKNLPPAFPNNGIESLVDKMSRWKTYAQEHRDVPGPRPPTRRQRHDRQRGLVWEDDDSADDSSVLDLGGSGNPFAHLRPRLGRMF

[6] = biological target: T2, AdV5 pIVa2 (human adenovirus C serotype 5) (UniProt P03271)
T2 sequence: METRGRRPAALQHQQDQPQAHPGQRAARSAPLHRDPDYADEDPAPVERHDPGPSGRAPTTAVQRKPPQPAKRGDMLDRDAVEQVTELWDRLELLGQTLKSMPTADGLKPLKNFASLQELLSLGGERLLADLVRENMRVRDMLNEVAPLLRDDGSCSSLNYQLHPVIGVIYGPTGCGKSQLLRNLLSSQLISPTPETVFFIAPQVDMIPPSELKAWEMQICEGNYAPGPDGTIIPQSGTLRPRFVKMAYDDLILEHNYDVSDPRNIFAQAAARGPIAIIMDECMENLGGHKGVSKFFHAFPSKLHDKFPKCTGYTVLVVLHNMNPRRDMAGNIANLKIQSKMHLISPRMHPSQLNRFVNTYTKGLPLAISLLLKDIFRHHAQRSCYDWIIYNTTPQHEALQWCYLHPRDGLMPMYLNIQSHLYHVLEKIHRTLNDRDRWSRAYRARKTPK

[7] = biological target: AdV5 pIX (human adenovirus C serotype 5) (UniProt P03281)
[8] = biological target: AdV5 pTP (human adenovirus C serotype 5) (UniProt P04499)
[9] = biological target: T3, AdV5 pV (human adenovirus C serotype 5) (UniProt P24938)
T3 sequence: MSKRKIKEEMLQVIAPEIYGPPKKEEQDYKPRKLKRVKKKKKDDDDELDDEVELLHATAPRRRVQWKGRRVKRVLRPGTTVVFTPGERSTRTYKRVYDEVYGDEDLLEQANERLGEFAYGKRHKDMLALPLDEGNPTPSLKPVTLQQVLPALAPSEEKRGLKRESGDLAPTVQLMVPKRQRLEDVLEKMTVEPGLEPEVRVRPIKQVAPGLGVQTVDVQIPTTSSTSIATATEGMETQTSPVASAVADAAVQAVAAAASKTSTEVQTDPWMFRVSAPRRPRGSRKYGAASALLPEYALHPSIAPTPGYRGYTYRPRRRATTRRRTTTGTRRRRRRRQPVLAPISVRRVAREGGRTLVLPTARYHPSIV

[10] = biological target: AdV5 pVI (human adenovirus C serotype 5) (UniProt P24937)
[11] = biological target: T4, AdV5 pVII (human adenovirus C serotype 5) (UniProt P68951)
T4 sequence (chain, acetylation at S2 (100.0%)): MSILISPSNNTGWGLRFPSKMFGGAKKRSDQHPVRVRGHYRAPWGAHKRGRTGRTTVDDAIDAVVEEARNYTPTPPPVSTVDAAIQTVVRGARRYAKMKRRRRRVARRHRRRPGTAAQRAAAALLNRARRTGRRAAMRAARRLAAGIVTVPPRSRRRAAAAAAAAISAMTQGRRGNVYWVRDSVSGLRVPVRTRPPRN

[12] = biological target: AdV5 pVIII (human adenovirus C serotype 5) (UniProt P24936)
[13] = biological target: T5, AdV5 pµ (human adenovirus C serotype 5) (UniProt Q2KS10)
T5 sequence: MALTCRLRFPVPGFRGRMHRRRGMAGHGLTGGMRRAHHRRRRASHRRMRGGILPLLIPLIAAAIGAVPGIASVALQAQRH

[14] = biological target: Anc80 AAV capsid viral protein VP1

Sequence of Sequencing grade trypsin (P00761 9-231 limits assumed): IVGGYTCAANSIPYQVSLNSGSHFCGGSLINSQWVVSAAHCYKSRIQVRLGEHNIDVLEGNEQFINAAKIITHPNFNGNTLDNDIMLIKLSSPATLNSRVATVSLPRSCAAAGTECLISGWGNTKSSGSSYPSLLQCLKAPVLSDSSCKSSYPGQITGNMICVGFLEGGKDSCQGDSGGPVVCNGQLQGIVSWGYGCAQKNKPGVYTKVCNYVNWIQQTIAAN
Sequence of AdV5 Penton base (human adenovirus C serotype 5) (P12538 whole entry): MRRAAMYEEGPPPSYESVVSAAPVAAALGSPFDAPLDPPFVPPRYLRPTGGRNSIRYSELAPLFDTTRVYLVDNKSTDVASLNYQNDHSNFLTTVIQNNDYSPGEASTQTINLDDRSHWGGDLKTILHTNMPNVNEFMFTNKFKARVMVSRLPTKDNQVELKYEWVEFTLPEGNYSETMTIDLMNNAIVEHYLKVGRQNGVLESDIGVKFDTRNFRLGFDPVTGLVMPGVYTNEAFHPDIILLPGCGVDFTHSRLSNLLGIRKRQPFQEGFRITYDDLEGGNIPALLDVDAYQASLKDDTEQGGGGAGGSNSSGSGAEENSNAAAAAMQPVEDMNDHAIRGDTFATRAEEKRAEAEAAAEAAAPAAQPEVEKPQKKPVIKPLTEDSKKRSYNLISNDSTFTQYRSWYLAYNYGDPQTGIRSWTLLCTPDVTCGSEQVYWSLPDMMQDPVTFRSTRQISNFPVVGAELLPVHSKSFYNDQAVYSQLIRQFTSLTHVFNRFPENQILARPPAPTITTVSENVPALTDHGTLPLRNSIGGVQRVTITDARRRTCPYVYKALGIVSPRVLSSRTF

Work on “Sequencing grade trypsin (from UniProt P00761) (enzyme)” yielded a Sequence Coverage (%) by LC-MS/MS after trypsin digestion [1] of 91.7%, a Sequence Coverage (%) by LC-MS/MS after trypsin digestion [2] of 89.2% and a Sequence Coverage (%) by LC-MS/MS after trypsin digestion [3] of 91.4%. The Sequence Coverage (%) by LC-MS/MS after trypsin digestion [4] was 98.9%, the Sequence Coverage (%) by LC-MS/MS after trypsin digestion [5] was 99.1% and the Sequence Coverage (%) by LC-MS/MS after trypsin digestion [6] was 84.2%. The Sequence Coverage (%) by LC-MS/MS after trypsin digestion [7] was 99.3%, the Sequence Coverage (%) by LC-MS/MS after trypsin digestion [8] was 55.1% and the Sequence Coverage (%) by LC-MS/MS after trypsin digestion [9] was 94.3%. It also gave a Sequence Coverage (%) by LC-MS/MS after trypsin digestion [10] of 98.6%, a Sequence Coverage (%) by LC-MS/MS after trypsin digestion [11] of 91.9% and a Sequence Coverage (%) by LC-MS/MS after trypsin digestion [12] of 93.8%. It also gave a Sequence Coverage (%) by LC-MS/MS after trypsin digestion [13] of 92.5%.
Asp-N protease (enzyme) gave a sequence coverage by LC-MS/MS after Asp-N digestion [14] of 99.2%.
